Blank lines part the entries; values can stand above or below the binder they belong to.
B1: Rad51 (natural protein)
chain: MADTEVEMQVSAADTNNNENGQAQSNYEYDVNVQDEEDEAAAGPMPLQMLEGNGITASDIKKIHEAGYYTVESIAYTPKRQLLLIKGISEAKADKLLGEASKLVPMGFTTATEYHIRRSELITITTGSKQLDTLLQGGVETGSITELFGEFRTGKSQICHTLAVTCQLPIDMGGGEGKCLYIDTEGTFRPVRLLAVADRYGLNGEEVLDNVAYARAYNADHQLELLQQAANMMSESRFSLLVVDSCTALYRTDFSGRGELSARQMHLARFMRTLQRLADEFGIAVVITNQVVAQVDGISFNPDPKKPIGGNILAHSSTTRLSLRKGRGEQRICKIYDSPCLPESEAIFAINSDGVGDPKEIIAPV

Columns and labels:
[1] = biological target: T1, Swi5-Sfr1 complex, wild type (S. pombe, UniProt Q9USV1;Q9UUB7); test: pull-down
T1 sequence 1: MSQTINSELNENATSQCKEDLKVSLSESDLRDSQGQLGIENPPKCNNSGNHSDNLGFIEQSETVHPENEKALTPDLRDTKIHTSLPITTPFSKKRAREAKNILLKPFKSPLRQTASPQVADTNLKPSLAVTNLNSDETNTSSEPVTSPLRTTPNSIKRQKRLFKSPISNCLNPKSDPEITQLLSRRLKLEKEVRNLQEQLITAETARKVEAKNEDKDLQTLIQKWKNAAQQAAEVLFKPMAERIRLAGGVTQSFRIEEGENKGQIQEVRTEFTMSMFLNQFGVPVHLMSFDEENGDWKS
T1 sequence 2: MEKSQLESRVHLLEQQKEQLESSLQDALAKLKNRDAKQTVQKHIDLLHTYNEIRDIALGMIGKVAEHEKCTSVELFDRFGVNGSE

Sfr1, wild type = biological target: T2, Sfr1, wild type (S. pombe, UniProt Q9USV1 1-299); test: SEC
T2 sequence: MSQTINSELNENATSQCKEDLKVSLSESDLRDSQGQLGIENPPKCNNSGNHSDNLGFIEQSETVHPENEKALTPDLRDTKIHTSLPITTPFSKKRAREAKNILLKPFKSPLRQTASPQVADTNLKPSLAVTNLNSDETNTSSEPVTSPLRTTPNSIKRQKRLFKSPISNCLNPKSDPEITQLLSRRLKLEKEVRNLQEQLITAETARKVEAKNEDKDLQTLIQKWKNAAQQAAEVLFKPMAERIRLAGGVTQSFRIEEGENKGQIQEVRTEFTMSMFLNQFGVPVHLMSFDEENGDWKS

Rad51 = biological target: B1; test: pull-down

Binder: B1
binding result [1]: binds

binding result (Sfr1, wild type): binds
B2: Swi5 (natural protein)
chain: MEKSQLESRVHLLEQQKEQLESSLQDALAKLKNRDAKQTVQKHIDLLHTYNEIRDIALGMIGKVAEHEKCTSVELFDRFGVNGSE

fold reduction in co-precipitation with Rad51 against wild type (Rad51): ~5 fold
B3: Swi5-Sfr1 phosphomimetic mutant complex (complex)
chain 1: MSQTINSELNENATSQCKEDLKVDLSESDLRDSQGQLGIENPPKCNNSGNHSDNLGFIEQSETVHPENEKALDPDLRDTKIHTSLPITTPFSKKRAREAKNILLKPFKDPLRQTADPQVADTNLKPSLAVTNLNSDETNTSSEPVTSPLRTTPNSIKRQKRLFKDPISNCLNPKSDPEITQLLSRRLKLEKEVRNLQEQLITAETARKVEAKNEDKDLQTLIQKWKNAAQQAAEVLFKPMAERIRLAGGVTQSFRIEEGENKGQIQEVRTEFTMSMFLNQFGVPVHLMSFDEENGDWKS
chain 2: MEKSQLESRVHLLEQQKEQLESSLQDALAKLKNRDAKQTVQKHIDLLHTYNEIRDIALGMIGKVAEHEKCTSVELFDRFGVNGSE
